Earlier results as cited in patent US12194157B2, “Carrier for targeted delivery to a host” (Finncure Oy, priority 2020, dated 2025).

Target: ACE2 (Homo sapiens, UniProt Q9BYF1)
Conditions: simulation, ref [8]

Chain of ACE2 (Q9BYF1 18-805): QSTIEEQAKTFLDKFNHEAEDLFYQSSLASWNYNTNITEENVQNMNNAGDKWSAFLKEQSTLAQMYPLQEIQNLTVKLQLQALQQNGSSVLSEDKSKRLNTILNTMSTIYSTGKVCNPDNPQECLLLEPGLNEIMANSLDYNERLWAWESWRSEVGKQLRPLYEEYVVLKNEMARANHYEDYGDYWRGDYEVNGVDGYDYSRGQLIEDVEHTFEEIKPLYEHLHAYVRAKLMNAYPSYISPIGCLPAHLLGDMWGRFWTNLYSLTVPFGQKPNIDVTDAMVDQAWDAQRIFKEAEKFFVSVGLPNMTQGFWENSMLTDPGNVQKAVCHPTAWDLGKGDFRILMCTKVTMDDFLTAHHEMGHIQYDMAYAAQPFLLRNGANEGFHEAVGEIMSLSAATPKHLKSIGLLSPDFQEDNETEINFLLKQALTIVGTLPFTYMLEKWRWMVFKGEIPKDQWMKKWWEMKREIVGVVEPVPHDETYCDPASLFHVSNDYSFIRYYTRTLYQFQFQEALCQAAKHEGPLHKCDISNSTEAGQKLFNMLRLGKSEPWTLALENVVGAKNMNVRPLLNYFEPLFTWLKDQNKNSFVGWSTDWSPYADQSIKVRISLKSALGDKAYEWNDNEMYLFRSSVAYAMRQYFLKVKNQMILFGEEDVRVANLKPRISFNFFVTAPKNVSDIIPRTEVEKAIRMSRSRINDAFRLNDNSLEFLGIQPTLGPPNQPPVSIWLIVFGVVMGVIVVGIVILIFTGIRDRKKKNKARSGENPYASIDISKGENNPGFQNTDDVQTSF

YKYNYL (Potential alternative synthetic hexapeptide variant) [alternative synthetic hexapeptide variant from simulation]
binding affinity towards the ACE2 receptor relative to YKYRYL: even stronger binding affinity

YKYNYI (Potential alternative synthetic hexapeptide variant) [alternative synthetic hexapeptide variant from simulation]
binding affinity towards the ACE2 receptor relative to YKYRYL: even stronger binding affinity
